# Patent US10703820B2, “Methods and compositions for reducing cardiac damage and other conditions” (Tufts Medical Center, Inc., priority 2013, dated 2020)
# Marks after values point to notes of the source that are not given here.
# Key:
# [1] = test system: endoglin; assay: TGFβ1 stimulation of right ventricular fibroblasts (RVFB) pretreated with N-Eng Ab; format: cell-based, mouse and human; conditions: N-Eng Ab 10, 50, 100 μg/mL, TGFβ1 10 ng/mL
# Protocol: (§1) 115:67-75, 2007 and Neuss et al., Cell Tissue Res. 286:145-153, 1996. For neutralizing antibody studies in vitro, mouse cardiac fibroblasts were pretreated with 10, 50, or 100 ug/mL of either a N-Eng Ab or control IgG Ab for 24 hours in fibroblast basal medium without supplementation prior to stimulation with TGFβ1 (10 ng/mL). After 24 hours, cells were harvested for analysis. […] 7:e5-920, 2012.
# [2] = molecular target: T1, endoglin (Homo sapiens, UniProt P17813); assay: TGFβ1 stimulation of left ventricular fibroblasts (LVFB) pretreated with N-Eng Ab; format: cell-based, mouse and human; conditions: N-Eng Ab 10, 50, 100 μg/mL, TGFβ1 10 ng/mL
# T1 construct: endogenous in cells; host or cells: primary right and left ventricular cardiac fibroblasts (mouse and/or human)
# T1 sequence (P17813 26-658): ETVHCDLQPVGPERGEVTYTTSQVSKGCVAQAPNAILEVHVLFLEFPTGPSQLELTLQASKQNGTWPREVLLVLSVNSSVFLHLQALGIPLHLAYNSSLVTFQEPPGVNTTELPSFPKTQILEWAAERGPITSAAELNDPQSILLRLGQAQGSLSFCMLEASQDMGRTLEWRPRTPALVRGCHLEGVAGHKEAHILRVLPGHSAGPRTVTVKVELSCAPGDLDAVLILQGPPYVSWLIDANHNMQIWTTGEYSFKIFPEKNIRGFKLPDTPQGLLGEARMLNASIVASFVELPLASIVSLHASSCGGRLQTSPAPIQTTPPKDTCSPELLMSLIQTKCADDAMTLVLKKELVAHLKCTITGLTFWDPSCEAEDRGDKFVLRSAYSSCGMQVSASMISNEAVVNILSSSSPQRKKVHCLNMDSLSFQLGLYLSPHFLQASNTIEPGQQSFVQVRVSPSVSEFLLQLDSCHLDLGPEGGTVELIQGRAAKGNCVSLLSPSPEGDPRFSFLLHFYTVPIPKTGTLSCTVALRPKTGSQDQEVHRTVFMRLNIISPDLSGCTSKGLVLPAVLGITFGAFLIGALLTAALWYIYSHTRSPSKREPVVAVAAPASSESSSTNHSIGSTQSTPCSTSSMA
# Protocol: as §1
# [3] = molecular target: T2, endoglin (Mus musculus, UniProt Q63961); assay: Chronic moderate RVPO (PAC), antibody given from week 3 to week 6
# T2 sequence (Q63961 27-653): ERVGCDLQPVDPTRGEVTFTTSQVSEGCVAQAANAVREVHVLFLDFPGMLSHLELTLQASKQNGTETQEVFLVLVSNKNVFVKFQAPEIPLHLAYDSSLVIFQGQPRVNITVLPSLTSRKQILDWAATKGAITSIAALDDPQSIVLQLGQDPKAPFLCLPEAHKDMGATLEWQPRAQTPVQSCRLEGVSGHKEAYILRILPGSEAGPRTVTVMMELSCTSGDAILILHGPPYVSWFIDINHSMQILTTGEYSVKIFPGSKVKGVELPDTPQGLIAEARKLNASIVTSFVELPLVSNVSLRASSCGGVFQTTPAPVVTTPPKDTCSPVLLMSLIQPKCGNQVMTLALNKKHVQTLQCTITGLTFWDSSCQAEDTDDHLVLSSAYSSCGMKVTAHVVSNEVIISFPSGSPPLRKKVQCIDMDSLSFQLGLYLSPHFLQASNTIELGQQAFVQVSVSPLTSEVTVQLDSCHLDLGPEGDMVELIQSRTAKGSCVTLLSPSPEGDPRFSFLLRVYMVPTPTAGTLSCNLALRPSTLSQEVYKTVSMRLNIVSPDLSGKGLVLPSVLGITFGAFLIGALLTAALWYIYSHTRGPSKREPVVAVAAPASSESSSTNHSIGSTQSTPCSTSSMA
# Protocol: (§2) Specifically, mice were intubated using a 24G angiocath and mechanically ventilated (Harvard Apparatus) at 95 breaths per minute with a tidal volume of 0.3 mL with 2.0-2.5% Isoflurane and 100% flow-through oxygen. Depth of anesthesia was monitored by assessing palpebral reflex, toe pinch, respirations, and general response to touch. Using sterile technique, a left thoracotomy was performed to isolate and encircle the main pulmonary artery using a 7-0 nylon suture that is then tied tightly around a pre-sterilized, blunt end needle. After de-airing, the thorax is closed with layered 6-0 Dexon sutures to eliminate the risk of pneumothorax. Post-operative analgesia is immediately provided with subcutaneous buprenorphine 0.1 mL, which is continued twice daily and as needed for an additional 72 hours. Severe RVPO was induced by PAC with a 25G needle for 7 days in WT and Eng+/− mice. To investigate the role of endoglin in RVPO, WT mice received 15 mg/kg of either a neutralizing antibody to endoglin (N-Eng Ab; TRC105; Tracon Pharma) or an IgG1 control antibody (IgG Ab; R&D Systems) via single intraperitoneal injection 1 day prior to and 3 days after induction of severe RVPO. To study the effect of blocking endoglin activity after induction of RVPO, WT mice were randomized to receive biweekly IP injections for three weeks of 15 mg/kg N-Eng Ab or IgG control Ab beginning three weeks after induction of moderate RVPO using a 23G needle for PAC. […] After 7 days of severe PAC or 3 to 6 weeks of moderate RVPO, mice underwent hemodynamic analysis with a RV conductance catheter (Millar Inc) as previously described in Kapur et al., PLoS ONE. […] Briefly, mice were anesthetized with 2.0% isoflurane administered via a non-invasive nose-cone. Body temperature was monitored by a rectal thermistor probe and maintained at 37.5° C. with heating pads and a cycling heat lamp. In the supine position, the right external jugular vein was surgically isolated. A conductance catheter was advanced into the right ventricle for pressure-volume loop acquisition as described in Kapur et al., PLoS ONE. […] After completion of the hemodynamic study, with the animal still under isoflurane anesthesia, the chest was rapidly opened, and the mouse was euthanized by arresting the heart in diastole with 0.3 mL of 1N KCL injected directly into the left ventricle. The heart was then removed and processed for either biochemical or histologic analyses.
# (§3) All animals underwent terminal hemodynamic evaluation. Right heart catheterization was performed at the time of sacrifice in all animals. Mice were anesthetized with 2.0% isoflurane administered by a noninvasive nose cone. Body temperature was monitored by a rectal thermistor probe and maintained at 37.5° C. with heating pads and a cycling heat lamp. In the supine position, the right common carotid and right external jugular vein were surgically isolated. Silk ties were placed at the distal ends of both vessels while overhand loops were placed at the proximal ends with 7-0 nylon. A Millar PVR-1035 (Millar Instruments) mouse conductance catheter was used for RV recordings.
# [4] = molecular target: T2, endoglin; assay: Severe RVPO induced by PAC for 7 days in wild-type mice pre-treated with N-Eng Ab
# Protocol: as §2, §3
# [5] = 6 weeks moderate RVPO, antibody for the last 3 weeks
# [6] = moderate PAC 6 weeks, N-Eng Ab 15 mg/kg IP biweekly for the last 3 weeks
# [7] = Sham, wild-type mice + N-Eng Ab 15 mg/kg IP
# [8] = after severe RVPO, compared to the IgG group
# [9] = severe PAC 7 days, N-Eng Ab 15 mg/kg IP 1 day prior and 3 days after
substance,measurement,setting,value
"N-Eng Ab: neutralizing IgG1 antibody that binds human and mouse endoglin (TRC105), provided by Tracon Pharmaceuticals",TGFβ1 induced calcineurin protein expression,[1],inhibited
same,TGFβ1 induced protein levels of pERK-1/2,[1],inhibited
same,TGFβ1 induced protein levels of pSmad-3,[1],inhibited
same,TGFβ1 induced α-SMA protein expression,[1],inhibited
same,TGFβ1 induced calcineurin protein expression,[1]; listed as TRC105,attenuated
same,TGFβ1 induced calcineurin protein expression,[2],not LVFB
same,TGFβ1 induced protein levels of pERK-1/2,[2],inhibited
same,TGFβ1 induced protein levels of pSmad-3,[2],inhibited
same,TGFβ1 induced α-SMA protein expression,[2],not LVFB
same,TGFβ1 induced calcineurin protein expression,[2]; listed as TRC105,not LV fibroblasts
same,Calcineurin protein expression,[3]; [5],reduced
same,RV fibrosis,[3]; [5],significantly reduced
same,Type I collagen protein expression,[3]; [5],reduced
same,RV fibrosis,"[3]; 6 weeks moderate RVPO, antibody for the last 3 weeks, listed as TRC105",reduced RV fibrosis
same,Cardiac output,[3]; [6],1.4 ± 0.6 mL/min
same,Heart rate,[3]; [6],550 ± 52 beats per min
same,LV weight/tibial length,[3]; [6],4.5 ± 0.2 g/mm
same,RV +dp/dt,[3]; [6],4072 ± 875 mm Hg/sec
same,RV end-diastolic pressure,[3]; [6],2 ± 1 mm Hg
same,RV stroke volume,[3]; [6],3 ± 2 µL
same,RV systolic pressure,[3]; [6],69 ± 14 mm Hg
same,RV weight/tibial length,[3]; [6],2.5 ± 0.4 g/mm
same,RV −dp/dt,[3]; [6],3916 ± 875 mm Hg/sec
same,Total body weight,[3]; [6],27 ± 2 g
same,Mortality,"[3]; moderate RVPO, any time point",No mortality was observed
same,Cardiac output,[4]; [7],4.0 ± 1 mL/min
same,Heart rate,[4]; [7],512 ± 59 beats per min
same,LV weight/tibial length,[4]; [7],6 ± 0.01
same,RV +dp/dt,[4]; [7],2171 ± 283 mm Hg/sec
same,RV end-diastolic pressure,[4]; [7],3 ± 2 mm Hg
same,RV stroke volume,[4]; [7],8 ± 2 µL
same,RV systolic pressure,[4]; [7],24 ± 3 mm Hg
same,RV weight/tibial length,[4]; [7],1.5 ± 0.01 g/mm
same,RV −dp/dt,[4]; [7],1963 ± 257 mm Hg/sec
same,Total body weight,[4]; [7],28 ± 1 g
same,Survival,"[4]; after 7 days of severe RVPO, compared to IgG treatment",improved survival
same,RV MYH7 mRNA levels,[4]; after severe RVPO,reduced
same,RV TRPC-6 mRNA levels,[4]; after severe RVPO,reduced
same,RV mass (degree of hypertrophy),[4]; after severe RVPO,attenuated
same,RV α-SMA mRNA levels,[4]; after severe RVPO,reduced
same,RV Type I collagen levels,[4]; [8],reduced
same,RV calcineurin levels,[4]; [8],reduced
same,RV fibrosis,[4]; [8],significantly reduced
same,RV pERK-1/2 levels,[4]; [8],reduced
same,RV pSmad-3 levels,[4]; [8],reduced
same,Cardiac output,[4]; [9],2.4 ± 0.2 mL/min
same,Heart rate,[4]; [9],514 ± 52 beats per min
same,LV weight/tibial length,[4]; [9],5 ± 0.02
same,RV +dp/dt,[4]; [9],4130 ± 563 mm Hg/sec
same,RV end-diastolic pressure,[4]; [9],4 ± 2 mm Hg
same,RV stroke volume,[4]; [9],5 ± 1 µL
same,RV systolic pressure,[4]; [9],53 ± 9 mm Hg
same,RV weight/tibial length,[4]; [9],"1.9 ± 0.01*^,† g/mm"
same,RV −dp/dt,[4]; [9],3287 ± 350 mm Hg/sec
same,Total body weight,[4]; [9],24 ± 2 g
same,RV cardiomyocyte cross sectional area,"[4]; severe RVPO, compared to IgG controls (p=0.09)",trend towards lower cardiomyocyte hypertrophy
